B1: H4H10440P2 (antibody, human IgG4, V domains shown)
VH: EVQLVESGGGVVQPGGSLRLSCAASTFTFDDFAMHWVRQAPGKGLEWVSLITGDGGSTYYADPVKGRFTISRDNSKNSLYLQMNSLRTEDTALYYCVKDWWIAARPDYYYYGMDVWGQGTTVTVSS
VL: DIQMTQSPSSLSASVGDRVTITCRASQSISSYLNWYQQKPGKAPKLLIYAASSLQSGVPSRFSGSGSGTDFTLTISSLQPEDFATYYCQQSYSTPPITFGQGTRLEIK
B2: H4H10430P (antibody, human IgG4, V domains shown)
VH: EVQLVESGGGLVQPGRSLRLSCKASGFAFDDFAMHWVRQAPGKGLEWVSGIVWNSGDIGYADSVKGRFTISRDNAKNSLYLQLNSLRTEDTALYFCVKDMVRGLMGFNYYGMDVWGQGTTVTVSS
VL: EIVLTQSPATLSLSPGERATLSCRASQTISTYLVWYRQRPGQAPSLLIYDASNRATDIPARFSGSGSGTDFTLTISSLEPEDFAVYYCQQRSNWPITFGQGTRLEIK
notes: also called H4H1430P; H4H10430P2

What was measured:
Activin A [1] = molecular target: T1, Activin A (human, UniProt P08476 311-426); assay: Octet cross-competition; binder on anti-hFc tip; 50 nM hActivin A pre-bound with 1 uM H4H10436P2 (col 8); black box
T1 construct: Homodimer of two βA subunits; bought from R&D Systems (#338-AC); also called inhibin-βA dimer; human Activin A
T1 sequence: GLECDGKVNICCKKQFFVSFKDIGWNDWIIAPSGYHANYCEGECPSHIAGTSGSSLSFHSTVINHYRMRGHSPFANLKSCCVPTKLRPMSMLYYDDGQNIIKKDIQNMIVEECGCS
Procedure: (§1) No. 8,309,082) and Control 3 (MAB3381, available from R&D Systems, Inc., Minneapolis, Minn.) were also included in the assays. All assays were performed at 25° C. with a microtiter plate shaking rate of 1000 rpm in Octet HBST buffer (0.01 M HEPES pH7.4, 0.15M NaCl, 3 mM EDTA, 0.05% v/v Surfactant P20, 0.1 mg/mL BSA) according to manufacturer's instructions (ForteBio Corp., Menlo Park, Calif.). […] Any remaining anti-hFc binding sites on the tips were blocked by incubating the tips in a 50 ug/mL solution of irrelevant antibody for 5 minutes.

Activin A [2] = molecular target: T1, Activin A; assay: Octet cross-competition; binder on anti-hFc tip; 50 nM hActivin A mixed with 1 uM Isotype control 13 (-) (col 13); dark grey box
Procedure: as §1

Activin A [3] = molecular target: T1, Activin A; assay: Octet cross-competition; binder on anti-hFc tip; 50 nM hActivin A mixed with 1 uM Isotype control 12 (-) (col 12); dark grey box
Procedure: as §1

Activin B [4] = molecular target: T2, Activin B (human, UniProt P09529 293-407); assay: SPR, captured mAb, 25C
T2 construct: Homodimer of two βB subunits; R&D Systems #659-AB
T2 chain: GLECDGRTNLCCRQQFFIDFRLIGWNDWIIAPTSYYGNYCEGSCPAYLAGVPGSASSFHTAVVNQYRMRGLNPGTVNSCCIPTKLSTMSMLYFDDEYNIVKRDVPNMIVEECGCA
Summary of the method: (§2)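 Association was monitored for 240 s and dissociation in buffer for 600 s. Rate constants came from kinetic fitting; KD was calculated as kd/ka and dissociative half-life as ln2/(60*kd), in minutes.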

Activin A [5] = molecular target: T1, Activin A; assay: SPR, captured mAb, 25C
Summary of the method: as §2

Activin A [6] = molecular target: T1, Activin A; assay: Octet cross-competition; binder on anti-hFc tip; 50 nM hActivin A pre-bound with 1 uM H4H10446P2 (col 1); white box
Procedure: as §1

Activin A [7] = molecular target: T1, Activin A; assay: Octet cross-competition; binder on anti-hFc tip; 50 nM hActivin A pre-bound with 1 uM H4H10429P (col 6); black box
Procedure: as §1

Activin A [8] = molecular target: T1, Activin A; assay: Octet cross-competition; binder on anti-hFc tip; 50 nM hActivin A pre-bound with 1 uM H4H10442P2 (col 3); white box
Procedure: as §1

Activin A [9] = molecular target: T1, Activin A; assay: Octet cross-competition; binder on anti-hFc tip; 50 nM hActivin A pre-bound with 1 uM H4H10423P (col 4); white box
Procedure: as §1

Activin A [10] = molecular target: T1, Activin A; assay: Octet cross-competition; binder on anti-hFc tip; 50 nM hActivin A pre-bound with 1 uM Control 1 (col 10); black box
Procedure: as §1

Activin A [11] = molecular target: T1, Activin A; assay: Octet cross-competition; binder on anti-hFc tip; 50 nM hActivin A pre-bound with 1 uM H4H10430P (col 5); black box
Procedure: as §1

Activin A [12] = molecular target: T1, Activin A; assay: Octet cross-competition; binder on anti-hFc tip; 50 nM hActivin A pre-bound with 1 uM Control 3 (col 11); black box
Procedure: as §1

Activin B [13] = molecular target: T2, Activin B; assay: SPR, captured mAb, 37C
Summary of the method: as §2

Activin A [14] = molecular target: T1, Activin A; assay: SPR, captured mAb, 37C
Summary of the method: as §2

Activin A [15] = molecular target: T1, Activin A; assay: Octet cross-competition; binder on anti-hFc tip; 50 nM hActivin A pre-bound with 1 uM H4H10432P2 (col 7); black box
Procedure: as §1

Activin A [16] = molecular target: T1, Activin A; assay: Octet cross-competition; binder on anti-hFc tip; 50 nM hActivin A pre-bound with 1 uM H4H10468P2 (col 2); white box
Procedure: as §1

Activin A [17] = molecular target: T1, Activin A; assay: Octet cross-competition; binder on anti-hFc tip; 50 nM hActivin A pre-bound with 1 uM H4H10423P (col 4); black box
Procedure: as §1

Activin A [18] = molecular target: T1, Activin A; assay: Octet cross-competition; binder on anti-hFc tip; 50 nM hActivin A pre-bound with 1 uM H4H10440P2 (col 9); black box
Procedure: as §1

| Binder | binding response (Activin A [1]) | binding response (Activin A [2]) | binding response (Activin A [3]) | 50 nM Ag Bound (RU) (Activin B [4]) | Activin A-20 nM (RU) (Activin A [5]) | Kd (Activin A [5]) [nM] | koff (Activin A [5]) [s⁻¹] | kon (Activin A [5]) [M⁻¹ s⁻¹] | t1/2 (Activin A [5]) [min] | binding response (Activin A [6]) | binding response (Activin A [7]) | binding response (Activin A [8]) | binding response (Activin A [10]) | binding response (Activin A [12]) | 50 nM Ag Bound (RU) (Activin B [13]) | Activin A-20 nM (RU) (Activin A [14]) | Kd (Activin A [14]) [nM] | koff (Activin A [14]) [s⁻¹] | kon (Activin A [14]) [M⁻¹ s⁻¹] | t1/2 (Activin A [14]) [min] | other results |
| --- | --- | --- | --- | --- | --- | --- | --- | --- | --- | --- | --- | --- | --- | --- | --- | --- | --- | --- | --- | --- | --- |
| B1 | 0.32 | 0.11 | 0.28 | 18.8 | 12.9 | 0.0247 | 9.28e-05 | 3.76e+06 | 124 | 1.17 | 0.41 | 1.4 | 0.13 | -0.05 | 20.9 | 15.3 | 0.0515 | 0.000328 | 6.37e+06 | 35.2 | Kd (Activin B [4]): 1.09 nM; koff (Activin B [4]): 0.00116 s⁻¹; kon (Activin B [4]): 1.06e+06 M⁻¹ s⁻¹; t1/2 (Activin B [4]): 10 min; binding response (Activin A [9]): 1.22; binding response (Activin A [11]): 0.29; Kd (Activin B [13]): 3.29 nM; koff (Activin B [13]): 0.00419 s⁻¹; kon (Activin B [13]): 1.28e+06 M⁻¹ s⁻¹; t1/2 (Activin B [13]): 2.8 min; binding response (Activin A [15]): 0.27; binding response (Activin A [16]): 1.37 |
| B2 | 0.31 | 0.27 | 0.49 | 3.9 | 19.4 | 0.00352 | 0.000167 | 4.75e+07 | 69 | 1.55 | 0.62 | 1.76 | 0.2 | -0.03 | 3.6 | 25 | 0.00397 | 0.000151 | 3.8e+07 | 76.5 | binding result (Activin B [13]): no binding (tested: 50 nM); binding response (Activin A [15]): 0.26; binding response (Activin A [17]): 0.33; binding response (Activin A [18]): 0.31; binding response (Activin A [16]): 1.84 |
